The source of these data is patent US20190142971A1, “FORMULATION AND DELIVERY OF MODIFIED NUCLEOSIDE, NUCLEOTIDE, AND NUCLEIC ACID COMPOSITIONS” (ModernaTX, Inc., priority 2013, published 2019).

Like-named read-outs stand apart in the source and are kept apart here.

One data set concerns C57/BL6 mice. Kind of data set: Example 47: luciferase mRNA IM, SC, IV in mice, bioluminescence imaging (Tables 76-78). The format is in vivo. Here is the method: Modified RNA was delivered to C57/BL6 mice intramuscularly, subcutaneously, or intravenously to evaluate the bio-distribution of modified RNA using luciferase. A formulation buffer used with all delivery methods contained 150 mM sodium chloride, 2 mM calcium chloride, 2 mM Na+-phosphate which included 1.4 mM monobasic sodium phosphate and 0.6 mM of dibasic sodium phosphate, and 0.5 mM ethylenediaminetetraacetic acid (EDTA) was adjusted using sodium hydroxide to reach a final pH of 6.5 before being filtered and sterilized. A 1× concentration was used as the delivery buffer. To create the lipoplexed solution delivered to the mice, in one vial […] was equilibrated for 10 minutes at room temperature in the delivery buffer and in a second vial 10 μl RNAiMAX™ was equilibrated for 10 minutes at room temperature in the delivery buffer. After equilibrium, the vials were combined and delivery buffer was added to reach a final volume of 100 μl which was then incubated for 20 minutes at room temperature. Luciferin was administered by intraperitoneal injection (IP) at 150 mg/kg to each mouse prior to imaging during the plateau phase of the luciferin exposure curve which was between 15 and 30 minutes. To create luciferin, 1 g of D-luciferin potassium or sodium salt was dissolved in 66.6 ml of distilled phosphate buffer solution (DPBS), not containing Mg2+ or Ca2+, to make a 15 mg/ml solution. The solution was gently mixed and passed through a 0.2 μm syringe filter, before being purged with nitrogen, aliquoted and frozen at −80° C. while being protected from light as much as possible. The solution was thawed using a waterbath if luciferin was not dissolved, gently mixed and kept on ice on the day of dosing.
Whole body images were taken of each mouse 2, 8 and 24 hours after dosing. Tissue images and serum was collected from each mouse 24 hours after dosing. Mice administered doses intravenously had their liver, spleen, kidneys, lungs, heart, peri-renal adipose tissue and thymus imaged. Mice administered doses intramuscularly or subcutaneously had their liver, spleen, kidneys, lungs, peri-renal adipose tissue, and muscle at the injection site. From the whole body images the bioluminescence was measured in photon per second for each route of administration and dosing regimen.
The bioluminescence average for the luciferase expression signals for each group at 2, 8 and 24 hours after dosing are shown in Table 76.
Mice were subcutaneously (S.C.) administered either modified luciferase mRNA (Naked-Luc), lipoplexed modified luciferase mRNA (Lipoplex-luc), lipoplexed modified G-CSF mRNA (Lipoplex-G-CSF) or the formation buffer at a single dose of 50 μg of modified mRNA in an injection volume of 100 μl for each formulation. The bioluminescence average for the luciferase expression signals for each group at 2, 8 and 24 hours after dosing are shown in Table 77.
Mice were intravenously (I.V.) administered either modified luciferase mRNA (Naked-Luc), lipoplexed modified luciferase mRNA (Lipoplex-luc), lipoplexed modified G-CSF mRNA (Lipoplex-G-CSF) or the formation buffer at a single dose of 50 μg of modified mRNA in an injection volume of 100 μl for each formulation. The bioluminescence average for the luciferase expression signal in the spleen from each group at 2 hours after dosing is shown in Table 78.

Data set [1] relates to peripheral blood mononuclear cells (PBMC). Kind of data set: Example 46A: percent modification, PBMC G-CSF ELISA (Table 73). The format is cell-based, human. The method, then:
960 ng of G-CSF mRNA modified with 5-methylcytosine (5mC) and pseudouridine (pseudoU) or unmodified G-CSF mRNA was transfected with 0.8 uL of Lipofectamine 2000 into peripheral blood mononuclear cells (PBMC) from three normal blood donors (D1, D2, D3). […] The supernatant was harvested and run by ELISA 22 hours after transfection to determine the protein expression. The expression of IFN-alpha and TNF-alpha may be a secondary effect from the transfection of the G-CSF mRNA.

In the next data set the test system is BJ fibroblasts. To be noted: for IFN-beta / IL-6: 250 ng transfected daily for 5 days.
The test system of data set [2] is mice. Kind of data set: Example 41: IV lipoplexed G-CSF mRNA in mice, neutrophil count (Table 66). The conditions noted are these: IV 10% lipoplex, 50 ug at days 0, 2, 4; day 5. The format is in vivo. The method, then:
Neutrophils were measured at days 1, 5 and 8. Controls included non-specific mammalian RNA or the formulation buffer alone (F.Buffer). The mice were bled at days 1, 5 and 8 to determine the effect of mRNA-encoded human G-CSF to increase neutrophil count. The dosing regimen is shown in Table 66 as are the resulting neutrophil counts (thousands/uL; K/uL).

The subject of data set [3] is mice. As to the kind of experiment: Example 48: split dose study EPO mmRNA IM in mice, serum EPO, dose splitting factor (Table 79). The format is in vivo. Here is the method:
The dosing vehicle (F. buffer) consisted of 150 mM NaCl, 2 mM CaCl2), 2 mM Natphosphate (1.4 mM monobasic sodium phosphate; 0.6 mM dibasic sodium phosphate), and 0.5 mM EDTA, pH 6.5. The pH was adjusted using sodium hydroxide and the final solution was filter sterilized.
Animals (n=5) were injected IM (intramuscular) for the single unit dose of 100 ug. For multi-dosing, two schedules were used, 3 doses of 100 ug and 6 doses of 100 ug. For the split dosing scheme, two schedules were used, 3 doses at 33.3 ug and 6 doses of 16.5 ug mmRNA. Control dosing involved use of buffer only at 6 doses. […] Blood and muscle tissue were evaluated 13 hrs post injection.
Human EPO protein was measured in mouse serum 13 h post I.M. single, multi- or split dosing of the EPO mmRNA in buffer. Seven groups of mice (n=5 mice per group) were treated and evaluated.
The splitting factor is defined as the product per unit drug divided by the single dose product per unit drug (PUD). For example for treatment group 2 the value 0.28 or product (EPO) per unit drug (mmRNA) is divided by the single dose product per unit drug of 0.14. The result is 2. Likewise, for treatment group 4, the value 1.1 or product (EPO) per unit drug (mmRNA) is divided by the single dose product per unit drug of 0.14. The result is 7.9. Consequently, the dose splitting factor (DSF) may be used as an indicator of the efficacy of a split dose regimen. For any single administration of a total daily dose, the DSF should be equal to 1. Therefore any DSF greater than this value in a split dose regimen is an indication of increased efficacy.

Regarding “Luciferase: luciferase mRNA, SEQ ID NO: 14, Cap1, fully modified with 5-methylcytosine and pseudouridine”, the Bioluminescence in the data set with C57/BL6 mice (I.M., Dose 5 ug, 2 hours) is given as 224,000 photon/sec; in the data set with C57/BL6 mice (I.M., Dose 5 ug, 8 hours), 683,000 photon/sec; in the data set with C57/BL6 mice (I.M., Dose 5 ug, 24 hours), 927,000 photon/sec; in the data set with C57/BL6 mice (I.M., Dose 50 ug, 2 hours), 446,000 photon/sec; in the data set with C57/BL6 mice (I.M., Dose 50 ug, 8 hours), 766,000 photon/sec; in the data set on C57/BL6 mice (I.M., Dose 50 ug, 24 hours), 509,000 photon/sec. Besides, the Bioluminescence with C57/BL6 mice (S.C., 50 μg, 2 hours) was 3,700,000 photon/sec; with C57/BL6 mice (S.C., 50 μg, 8 hours), 8,060,000 photon/sec; in the data set on C57/BL6 mice (S.C., 50 μg, 24 hours), 2,080,000 photon/sec. Further, in the data set with C57/BL6 mice (I.V., 50 μg, 2 hours after dosing), the “Bioluminescence of the Spleen” value is 58,400 photon/sec. Also, the “G-CSF Expression” value in data set [1] (PBMC donor D1, 960 ng mRNA) came out at 14.5 pg/mL; in data set [1] (PBMC donor D2, 960 ng mRNA), 3.1 pg/mL; in data set [1] (PBMC donor D3, 960 ng mRNA), 10.0 pg/mL.

B1: G-CSF: modified mRNA encoding human G-CSF, SEQ ID NO: 4, Cap1, fully modified with 5-methylcytosine and pseudouridine; LNP-formulated in Examples 16-22 (nucleic acid)
chain: GGGAAAUAAGAGAGAAAAGAAGAGUAAGAAGAAAUAUAAGAGCCACCAUGGCCGGUCCCGCGACCCAAAGCCCCAUGAAACUUAUGGCCCUGCAGUUGCUGCUUUGGCACUCGGCCCUCUGGACAGUCCAAGAAGCGACUCCUCUCGGACCUGCCUCAUCGUUGCCGCAGUCAUUCCUUUUGAAGUGUCUGGAGCAGGUGCGAAAGAUUCAGGGCGAUGGAGCCGCACUCCAAGAGAAGCUCUGCGCGACAUACAAACUUUGCCAUCCCGAGGAGCUCGUACUGCUCGGGCACAGCUUGGGGAUUCCCUGGGCUCCUCUCUCGUCCUGUCCGUCGCAGGCUUUGCAGUUGGCAGGGUGCCUUUCCCAGCUCCACUCCGGUUUGUUCUUGUAUCAGGGACUGCUGCAAGCCCUUGAGGGAAUCUCGCCAGAAUUGGGCCCGACGCUGGACACGUUGCAGCUCGACGUGGCGGAUUUCGCAACAACCAUCUGGCAGCAGAUGGAGGAACUGGGGAUGGCACCCGCGCUGCAGCCCACGCAGGGGGCAAUGCCGGCCUUUGCGUCCGCGUUUCAGCGCAGGGCGGGUGGAGUCCUCGUAGCGAGCCACCUUCAAUCAUUUUUGGAAGUCUCGUACCGGGUGCUGAGACAUCUUGCGCAGCCGUGAAGCGCUGCCUUCUGCGGGGCUUGCCUUCUGGCCAUGCCCUUCUUCUCUCCCUUGCACCUGUACCUCUUGGUCUUUGAAUAAAGCCUGAGUAGGAAG
modifications: Cap1, 5-methylcytosine, pseudouridine
Take B1: the “time to cytokine response (IFN-beta, IL-6)” value with BJ fibroblasts lay in the range of 2 to 3 days. Besides, the IFN-beta with BJ fibroblasts (6 hours) is 0 pg/mL; with BJ fibroblasts (Day 1), 38 pg/mL; in the data set with BJ fibroblasts (Day 2), 1125 pg/mL; with BJ fibroblasts (Day 3), 100 pg/mL; in the data set on BJ fibroblasts (Day 4), 75 pg/mL; in the data set on BJ fibroblasts (Day 5), 213 pg/mL. Besides, the IL-6 is 3396 pg/mL with BJ fibroblasts (6 hours); 3870 pg/mL with BJ fibroblasts (Day 1); 16341 pg/mL in the data set with BJ fibroblasts (Day 2); 25983 pg/mL with BJ fibroblasts (Day 3); 18922 pg/mL in the data set with BJ fibroblasts (Day 4); 15928 pg/mL in the data set on BJ fibroblasts (Day 5). Further, the “increase in neutrophil count above control” value in the data set with mice [2] is given as “four to five fold increase”.

B2: EPO: modified mRNA encoding human erythropoietin, SEQ ID NO: 7, Cap1, fully modified with 5-methylcytosine and pseudouridine; LNP NPA-060-1 in Examples 17-22 (nucleic acid)
chain: GGGAAAUAAGAGAGAAAAGAAGAGUAAGAAGAAAUAUAAGAGCCACCAUGGGAGUGCACGAGUGUCCCGCGUGGUUGUGGUUGCUGCUGUCGCUCUUGAGCCUCCCACUGGGACUGCCUGUGCUGGGGGCACCACCCAGAUUGAUCUGCGACUCACGGGUACUUGAGAGGUACCUUCUUGAAGCCAAAGAAGCCGAAAACAUCACAACCGGAUGCGCCGAGCACUGCUCCCUCAAUGAGAACAUUACUGUACCGGAUACAAAGGUCAAUUUCUAUGCAUGGAAGAGAAUGGAAGUAGGACAGCAGGCCGUCGAAGUGUGGCAGGGGCUCGCGCUUUUGUCGGAGGCGGUGUUGCGGGGUCAGGCCCUCCUCGUCAACUCAUCACAGCCGUGGGAGCCCCUCCAACUUCAUGUCGAUAAAGCGGUGUCGGGGCUCCGCAGCUUGACGACGUUGCUUCGGGCUCUGGGCGCACAAAAGGAGGCUAUUUCGCCGCCUGACGCGGCCUCCGCGGCACCCCUCCGAACGAUCACCGCGGACACGUUUAGGAAGCUUUUUAGAGUGUACAGCAAUUUCCUCCGCGGAAAGCUGAAAUUGUAUACUGGUGAAGCGUGUAGGACAGGGGAUCGCUGAUAAGCUGCCUUCUGCGGGGCUUGCCUUCUGGCCAUGCCCUUCUUCUCUCCCUUGCACCUGUACCUCUUGGUCUUUGAAUAAAGCCUGAGUAGGAAG
modifications: Cap1, 5-methylcytosine, pseudouridine
For B2, the “product (EPO) per unit drug (mmRNA)” value in the data set on mice [3] (single dose) is 0.14; with mice [3] (treatment group 2), 0.28; with mice [3] (treatment group 4), 1.1. In addition, the “dose splitting factor (DSF)” value in the data set on mice [3] (treatment group 2) is 2; in the data set with mice [3] (treatment group 4), 7.9.
